# Assay results reported in publication PMC10483858 (Molecular Cancer, 2023).
# Where no end group is shown, it is not given here. [ ]: non-standard residue; d: D form. TrpNAc = Trp with an acetic acid moiety; Hyp = O=C(O)[C@@H]1C[C@@H](O)CN1; NMeNle = CCCC[C@H](NC)C(=O)O; NMeA = CN[C@@H](C)C(=O)O; Dab = NCC[C@H](N)C(=O)O; Scc = not defined here
# Target: T1, PD-L1 of the commercial HTRF PD-1/PD-L1 interaction assay
# T1 construct: PD-L1 as supplied in the Cisbio HTRF kit
# Assay: AlphaScreen or HTRF; commercial HTRF PD-1/PD-L1 interaction assay (Cisbio, France); pAC65 varied; data fitted with Hill's model
# Conditions: both partners purified
binder,measurement,value
"Y[NMeA]NP[Ala‑NH2]L[Hyp]W[Dab][TrpNAc][NMeNle][NMeNle]L[Scc]G-NH2 (bridge (positions not given here); not fully specified (bridges); reading uncertain; also: macrocyclic ring, places not given here) [pAC65 macrocyclic peptide]",IC50,1.8 ± 0.16 nM
